Our source for the ratio to parent values is paper PMC10371797.

First the molecules themselves.
B1: ZC3H11A(wt)-HA [human] / PABPN1-Flag [not stated] (parent)
chain 1: MPNQGEDCYFFFYSTCTKGDSCPFRHCEAAIGNETVCTLWQEGRCFRQVCRFRHMEIDKKRSEIPCYWENQPTGCQKLNCAFHHNRGRYVDGLFLPPSKTVLPTVPESPEEEVKASQLSVQQNKLSVQSNPSPQLRSVMKVESSENVPSPTHPPVVINAADDDEDDDDQFSEEGDETKTPTLQPTPEVHNGLRVTSVRKPAVNIKQGECLNFGIKTLEEIKSKKMKEKSKKQGEGSSGVSSLLLHPEPVPGPEKENVRTVVRTVTLSTKQGEEPLVRLSLTERLGKRKFSAGGDSDPPLKRSLAQRLGKKVEAPETNIDKTPKKAQVSKSLKERLGMSADPDNEDATDKVNKVGEIHVKTLEEILLERASQKRGELQTKLKTEGPSKTDDSTSGARSSSTIRIKTFSEVLAEKKHRQQEAERQKSKKDTTCIKLKIDSEIKKTVVLPPIVASRGQSEEPAGKTKSMQEVHIKTLEEIKLEKALRVQQSSESSTSSPSQHEATPGARRLLRITKRTGMKEEKNLQEGNEVDSQSSIRTEAKEASGETTGVDITKIQVKRCETMREKHMQKQQEREKSVLTPLRGDVASCNTQVAEKPVLTAVPGITRHLTKRLPTKSSQKVEVETSGIGDSLLNVKCAAQTLEKRGKAKPKVNVKPSVVKVVSSPKLAPKRKAVEMHAAVIAAVKPLSSSSVLQEPPAKKAAVAVVPLVSEDKSVTVPEAENPRDSLVLPPTQSSSDSSPPEVSGPSSSQMSMKTRRLSSASTGKPPLSVEDDFEKLIWEISGGKLEAEIDLDPGKDEDDLLLELSEMIDS
chain 2: MAAAAAAAAAAGAAGGRGSGPGRRRHLVPGAGGEAGEGAPGGAGDYGNGLESEELEPEELLLEPEPEPEPEEEPPRPRAPPGAPGPGPGSGAPGSQEEEEEPGLVEGDPGDGAIEDPELEAIKARVREMEEEAEKLKELQNEVEKQMNMSPPPGNAGPVIMSIEEKMEADARSIYVGNVDYGATAEELEAHFHGCGSVNRVTILCDKFSGHPKGFAYIEFSDKESVRTSLALDESLFRGRQIKVIPKRTNRPGISTTDRGFPRARYRARTTNYNSSRSRFYSGFNSRPRGRVYRGRARATSWYSPY

This assay covers variants of B1. The experiment in a line: co-IP (PABPN1-Flag bait), Western blot quantification. The conditions noted are these: with PABPN1-Flag; three individual experiments; read off a plot. Background: Immunoblotting shows a protein as a band on a membrane.
With chain 1 C8A, the ratio to parent is 0.24.

Regarding chain 1 C37A, the ratio to parent came out at 0.57.

On to chain 1 C66A, for which the ratio to parent came to 0.17.
